Results from patent US10350264B2, “Compositions and methods for modulating NCOA4-mediated autophagic targeting of ferritin” (Dana-Farber Cancer Institute, Inc., priority 2014, dated 2019).

Experiments:
Type in all cases: binding
recombinant human FTL = molecular target: T1, recombinant human FTL (Homo sapiens, UniProt P02792); experiment: GST pull-down assay of recombinant FTL using GST-NCOA4; conditions: recombinant FTL from E. coli, 0.2 μg and 1 μg; FIG. 10B; listed as GST-NCOA4 fragment
T1 construct: made in house; host or cells: Rosetta E. coli (EMD Millipore, 70953-3)
Experimental: (§1) In the GST pull-down assay, lysates were incubated with 10 μl of a 50% (v/v) slurry of glutathione Sepharose 4B beads (GE Healthcare Lifesciences, 17-0756-01) for 30 minutes at 4° C. Beads were washed thoroughly with 150 mM NaCl, 20 mM Tris (pH 7.4), 2 mM dithiothreitol (DTT), 0.5% (w/v) Nonidet P-40, leaving 50-100 μg of GST-fusion protein bound to the beads. Beads were then mixed with 0.5-2 μg of apo-ferritin purified from equine spleen (Sigma F4503) or recombinant human FTH1 or FTL produced in Rosetta E. coli (EMD Millipore, 70953-3). The assay mix was incubated for 2 hours at 4° C., and beads were washed four times with 1 ml wash buffer. Proteins were eluted with SDS sample buffer and analyzed by 4-20% gradient SDS-PAGE and immunoblotting with anti-FTH1 antibody (as above) or anti-FLAG antibody (Sigma, F1804-200 UG). Pounceau stain was used to visualize GST-NCOA4 bands. (Pounceau, Sigma, P7170-1 L, protocol as per product manual).
(§2) To understand if there was subunit specificity for NCOA4 binding to ferritin, the NCOA4 C-terminus (aa 235-614) fusion protein was immobilized on glutathione Sepharose beads, as described in Example 1. Recombinant purified FTH1 or FTL produced in E. coli was added at concentrations of 0.2 μg and 1 μg, and binding was determined using the GST pull-down assay described in Example 1, above.

[1] = molecular target: T2, apo-ferritin purified from equine spleen (Equus caballus, UniProt Q8MIP0); experiment: GST pull-down assay of ferritin using GST-NCOA4 fragments; conditions: anti-FTH1 immunoblot, FIGS. 7, 8, 11
T2 construct: apo-ferritin purified from equine spleen; purchased Sigma F4503; host or cells: equine spleen
Description: GST-tagged NCOA4 constructs were also made to probe the interactions of C-terminal portions of NCOA4 with ferritin. NCOA4-truncation constructs were produced using Gateway cloning (Invitrogen, Life Technologies, catalog #11789-013 and 11791-019) into a pDEST60 N-terminal GST fusion plasmid (GST-NCOA4) from EMD Millipore (Gateway Nova pET-60-DEST, product #71851-3) and transformed in E. coli BL21 (DE3) cells (New England Biosciences, C2527I).
NCOA4 truncation constructs were designed based on NCBI reference sequence: NP_001138735.1 (SEQ ID NO: 4). In particular, fragments of SEQ ID NO: 4 consisting of amino acids (aa) 1-245, aa 235-614, aa 235-560, aa 235-401, aa 383-560, aa 545-614, aa 383-522, aa 510-560, aa 383-436, aa 436-485, aa 475-522, aa 475-500, aa 480-500, aa 480-504, aa 485-509, aa 490-514, aa 495-522 were designed. Protein expression in the DE3 cells was induced with 1 mM isopropyl-beta-D-thiogalactopyranoside (IPTG) (Sigma, I6758-10 G) for 3 hours at 37° C. Cells were collected by centrifugation, re-suspended in 25 mM Tris-HCl (pH 7.4), 10% (w/v) sucrose and lysed with a single freeze-thaw cycle followed by sonication. After centrifugation, a GST pull-down assay was performed.
as §1

[2] = molecular target: T3, ferritin purified from horse spleen (mixture of FTH1 and FTL subunits) (Equus caballus, UniProt Q8MIP0); experiment: anti-MYC immunoprecipitation of in vitro translated MYC-NCOA4 constructs incubated with ferritin; conditions: anti-MYC IP, anti-FTH1 immunoblot, FIG. 5
T3 construct: ferritin purified from horse spleen; purchased Sigma A3641-100 mg; host or cells: horse spleen
Experimental: To probe the interaction between ferritin and NCOA4, initial binding assays using MYC-tagged NCOA4 full-length and truncation constructs produced using an in vitro translation (“IVT”) system were conducted. MYC-NCOA4 fragments were cloned using PCR into a modified T7 cell-free expression vector (pT7CFE1-NMyc, #88863, Thermo Scientific). 1-Step Human Coupled IVT Kit—DNA from Thermo Scientific (product #88881) was used to produce MYC-tagged NCOA4 constructs as described in the product manual. Apoferritin (Sigma, A3641-100 mg) was added in a pull-down assay using anti-c-Myc Agarose Affinity Gel antibody produced in rabbit (Sigma, A7470-1 ML). Affinity purification reactions were washed thoroughly with 150 mM NaCl, 20 mM Tris (pH 7.4), and 2 mM dithiothreitol. Proteins were eluted with SDS sample buffer and analyzed by 4-20% gradient SDS-PAGE and immunoblotting with anti-FTH1 antibody (Cell Signaling 3998; Western blot 1:1,000) or anti-MYC antibody (Santa Cruz Sc-40; western blot 1:1,000).
The full-length, N-terminal (amino acids (aa) 1-245 of SEQ ID NO: 4) and C-terminal (aa 235-614 of SEQ ID NO:4) MYC-NCOA4 were incubated with ferritin purified from horse spleen (Apoferritin (Sigma, A3641-100 mg), consisting of a mixture of FTH1 and FTL subunits) and anti-MYC immunoprecipitation was performed followed by immunoblotting as described above.

recombinant human FTH1 = molecular target: T4, recombinant human FTH1 (Homo sapiens, UniProt P02794); experiment: GST pull-down assay of recombinant FTH1 using GST-NCOA4; conditions: recombinant FTH1 from E. coli, 0.2 μg and 1 μg, FIG. 10A
T4 construct: made in house; host or cells: Rosetta E. coli (EMD Millipore, 70953-3)
Experimental: as §1, §2

T4 sequence (P02794 whole entry): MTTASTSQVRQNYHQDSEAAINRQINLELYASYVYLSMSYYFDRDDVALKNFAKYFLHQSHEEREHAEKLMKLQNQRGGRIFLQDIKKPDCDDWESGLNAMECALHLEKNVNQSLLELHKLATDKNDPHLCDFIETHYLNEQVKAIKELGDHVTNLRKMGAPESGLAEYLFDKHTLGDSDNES
T3 sequence (Q8MIP0 whole entry): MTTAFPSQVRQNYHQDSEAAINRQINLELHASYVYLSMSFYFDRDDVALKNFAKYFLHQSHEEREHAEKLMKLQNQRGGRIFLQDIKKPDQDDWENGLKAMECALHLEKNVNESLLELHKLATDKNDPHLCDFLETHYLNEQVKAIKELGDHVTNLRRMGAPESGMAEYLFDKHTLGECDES
T3 sequence (P02791 2-175 partner limits assumed): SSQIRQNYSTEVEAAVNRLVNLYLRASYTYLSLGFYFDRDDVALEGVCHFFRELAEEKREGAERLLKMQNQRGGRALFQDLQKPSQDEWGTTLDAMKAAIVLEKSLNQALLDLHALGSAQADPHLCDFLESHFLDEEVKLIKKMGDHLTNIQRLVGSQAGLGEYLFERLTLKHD
T1 sequence (P02792 whole entry, the tested form may be a part): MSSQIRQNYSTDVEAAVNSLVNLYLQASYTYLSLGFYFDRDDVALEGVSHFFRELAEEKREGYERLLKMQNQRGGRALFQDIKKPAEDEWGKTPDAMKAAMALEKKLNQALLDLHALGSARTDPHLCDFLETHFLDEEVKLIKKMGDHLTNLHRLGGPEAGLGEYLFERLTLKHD
T2 sequence (Q8MIP0 whole entry, the tested form may be a part): as the sequence (Q8MIP0 whole entry) above
T2 sequence (P02791 2-175 partner limits assumed): as the sequence (P02791 2-175 partner limits assumed) above

B1: aa 235-614: NCOA4 C-terminal fragment, amino acids 235-614 of SEQ ID NO: 4 (protein)
chain: ENSQTSSRACNFFNNVGGNLKGLENWLLKSEKSSYQKCNSHSTTSSFSIEMEKVGDQELPDQDEMDLSDWLVTPQESHKLRKPENGSRETSEKFKLLFQSYNVNDWLVKTDSCTNCQGNQPKGVEIENLGNLKCLNDHLEAKKPLSTPSMVTEDWLVQNHQDPCKVEEVCRANEPCTSFAECVCDENCEKEALYKWLLKKEGKDKNGMPVEPKPEPEKHKDSLNMWLCPRKEVIEQTKAPKAMTPSRIADSFQVIKNSPLSEWLIRPPYKEGSPKEVPGTEDRAGKQKFKSPMNTSWCSFNTADWVLPGKKMGNLSQLSSGEDKWLLRKKAQEVLLNSPLQEEHNFPPDHYGLPAVCDLFACMQLKVDKEKWLYRTPLQM
modifications: Homo sapien
binding of GST-NCOA4 to FTL (recombinant human FTL): binds minimally to FTL | binding of GST-NCOA4 fragment to ferritin [1]: bound to ferritin | association of MYC-NCOA4 construct with ferritin [2]: associated with ferritin | association of MYC-NCOA4 construct with ferritin ([2]; listed as C-terminal NCOA4): bind to ferritin | binding of GST-NCOA4 to FTH1 (recombinant human FTH1; listed as GST-NCOA4 fragment): binds to FTH1 | binding of GST-NCOA4 to FTH1 (recombinant human FTH1; listed as NCOA4 C-terminus): interacted with the NCOA4 C-terminus
